From patent US20060275803A1, “Rat and mouse members of the CRISP family of genes” (Wyeth, priority 2005, published 2006)

Molecular target: T1, rCRISPA (rCRISP1) (Rattus norvegicus, UniProt P12020)
T1 construct: Native rCRISPA (rCRISP1) protein, purified with DANA present; from tissue; host or cells: rat epididymis
T1 sequence (P12020 20-246): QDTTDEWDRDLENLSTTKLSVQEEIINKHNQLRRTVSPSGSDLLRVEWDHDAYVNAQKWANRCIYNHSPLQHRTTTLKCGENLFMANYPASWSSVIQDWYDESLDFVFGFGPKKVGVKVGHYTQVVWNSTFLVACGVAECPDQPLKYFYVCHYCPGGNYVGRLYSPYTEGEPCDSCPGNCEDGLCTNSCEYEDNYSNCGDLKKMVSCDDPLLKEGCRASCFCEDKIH
Experiment: Protease activity screen: cleavage of substrate peptides by native rCRISPA (+DANA protocol), measured by fluorescence
Format: biochemical
Details: 5 μM substrate peptide, 1 μg enzyme, 100 mM NaCl, 25 mM Tris-Cl, pH 7.5; fluorescence at ten minute intervals for 130 minutes; FIG. 13
Experimental: FIG. 13 is a graph showing rCRISPA (rCRISP1) protease activity (assay conditions: 5 μM substrate peptide, 1 μg enzyme, 100 mM NaCl, 25 mM Tris-Cl, pH 7.5). A. Cleaved peptides A04 (RGARARLG), N08 (RKRRAPLA), N12 (AKRAASQI), N17 (RKRRAVLT), B22 (APQRFGKK), B17 (RQRYGKRS), B23 (RVKRYRQS), H03 (RNKRAVQG). B. Cleaved peptides B20 (PQRFGRNT), C16 (RVLGLKAH), J21 (LRNRAQSG), H07 (RVKRQVRS), H11 (RRLLRAIP), N05 (RARRELAP), H01 (RKKRSTKK), O22 (GGVRGPRV), O16 (AATRRQAV), O23 (KNVAMQKG), G24 (RRKRSTRE), A09 (RMRRYADA), M02 (EKQRIIGG), H17 (NGLRADPM). C. Uncleaved peptides L16 (KTPRWGG), N10 (FYRADQPR), B11 (AAGVAPLS), J03 (PQLHSTGG), C01 (GPQGLLGA), K11 (VIPRSGGS), M07 (GLQRALEI), A01 (WQGGRRKF), H02 (RAKRSVHF), A10 (SAARPAPP), M16 (RSRREADL), A05 (SYRKVLGQ), M18 (VHRDMAAR), C23 (RDAQAHPG), M09 (GSQHIRAE), E19 (RLGREGVQ), D06 (ALAEAMKK).
Native rCRISPA (rCRISP1) protein, purified with DANA present (see Example 4), was screened for the ability to cleave 360 unique peptides using the commercially available peptide substrate set (catalog # PrSS-360-75, JPT Peptide Technologies, Springfield, Va.). […] The substrate peptides cleaved by rCRISPA in this assay are represented by blue and green traces noted in FIG. 13. Peptides that were not cleaved by rCRISPA are also noted in FIG. 13.

cleavage of substrate peptide by rCRISPA (rCRISP1) protease activity: Cleaved
Sequence: RKRRAPLA [N08, substrate peptide of the commercial peptide substrate set PrSS-360-75, JPT Peptide Technologies]
